Measured values as given in patent publication US20250085286A1.

Molecular target: HRP-labelled monoclonal antibody targeting PRO-C22
Experiment: competitive ELISA, standard peptide against coated Biotin-… for the HRP-mAb

Sequence of HRP-labelled monoclonal antibody targeting PRO-C22 (VH, as listed by the source limits assumed, chain 1 of 2): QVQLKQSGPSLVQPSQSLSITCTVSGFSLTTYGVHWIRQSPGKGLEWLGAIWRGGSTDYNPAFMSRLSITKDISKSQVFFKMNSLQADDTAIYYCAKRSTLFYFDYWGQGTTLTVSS
Sequence of HRP-labelled monoclonal antibody targeting PRO-C22 (VL, as listed by the source limits assumed, chain 2 of 2): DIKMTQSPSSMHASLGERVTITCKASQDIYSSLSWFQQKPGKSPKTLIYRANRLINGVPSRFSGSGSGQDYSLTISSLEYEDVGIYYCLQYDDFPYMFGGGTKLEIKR

## GPPGPPGQCDPSQCAYFASLAARPGNVKGP [30 AA standard peptide …]
  IC50: 8.15 ng/mL
